Test results taken from the supplement of paper PMC10065799, “High-throughput profiling of sequence recognition by tyrosine kinases and SH2 domains using bacterial peptide display” (eLife, 2023).

molecular target: Jak2 (UniProt O60674); assay: phosphorylation enrichment, bacterial display (enrichment ratio); higher = better substrate or ligand; peptides without Tyr show the background
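Note: 11-residue human phosphosite peptides and single-mutation variants displayed on the E. coli surface, counted by deep sequencing, each peptide's frequency after selection divided by its frequency in the unselected input library; frequency after pTyr selection over input frequency; kinase dosed for 20-30% of maximal phosphorylation in three min.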

Jak2, sequence (O60674 whole entry, looked up): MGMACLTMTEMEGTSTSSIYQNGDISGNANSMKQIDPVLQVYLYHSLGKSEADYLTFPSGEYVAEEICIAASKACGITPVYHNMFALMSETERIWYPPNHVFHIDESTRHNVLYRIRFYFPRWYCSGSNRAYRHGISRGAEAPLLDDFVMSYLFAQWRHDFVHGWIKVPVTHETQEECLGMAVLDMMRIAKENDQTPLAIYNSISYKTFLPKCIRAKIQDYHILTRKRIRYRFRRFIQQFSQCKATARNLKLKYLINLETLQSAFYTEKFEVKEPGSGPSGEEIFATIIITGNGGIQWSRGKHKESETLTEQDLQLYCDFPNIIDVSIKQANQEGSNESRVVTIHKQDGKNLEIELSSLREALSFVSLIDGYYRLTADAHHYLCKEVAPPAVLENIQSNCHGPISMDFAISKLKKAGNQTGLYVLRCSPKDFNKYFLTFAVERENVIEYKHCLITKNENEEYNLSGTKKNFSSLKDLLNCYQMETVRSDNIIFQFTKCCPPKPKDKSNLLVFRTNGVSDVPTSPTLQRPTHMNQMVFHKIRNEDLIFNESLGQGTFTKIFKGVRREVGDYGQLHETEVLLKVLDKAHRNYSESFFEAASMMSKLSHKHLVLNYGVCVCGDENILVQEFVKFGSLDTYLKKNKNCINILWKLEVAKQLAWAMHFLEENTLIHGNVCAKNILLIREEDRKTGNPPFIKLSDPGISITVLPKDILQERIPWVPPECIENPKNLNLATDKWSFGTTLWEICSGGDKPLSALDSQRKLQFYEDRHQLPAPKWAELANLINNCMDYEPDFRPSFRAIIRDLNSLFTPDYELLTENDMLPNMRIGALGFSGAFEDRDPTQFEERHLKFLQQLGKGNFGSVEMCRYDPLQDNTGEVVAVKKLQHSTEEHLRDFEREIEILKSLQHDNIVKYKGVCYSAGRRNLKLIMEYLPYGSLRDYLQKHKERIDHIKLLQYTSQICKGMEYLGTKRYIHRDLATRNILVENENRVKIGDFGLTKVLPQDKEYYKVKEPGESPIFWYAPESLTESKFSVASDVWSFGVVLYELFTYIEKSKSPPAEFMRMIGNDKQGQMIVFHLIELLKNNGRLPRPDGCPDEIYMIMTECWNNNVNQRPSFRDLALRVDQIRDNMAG

Sequence	phosphorylation enrichment
IRKVLYANNVM [ACTA1_Y296_D294V]	0.637
LERFIYNRQEF [HLA-DPB1_Y59_E62Q_YF]	0.629
ATDLAYFLVRK [ASL_Y375_YF]	2.72
QRRLIYRCQVG [NR2E3_Y81_R76Q]	1.03
ARRMEYLASQK [FGFR2_Y616_G613R]	0.367
SDYYAYSPVRE [H6PD_Y449]	11.2
SHMVNYQPYRK [TEX37_Y25_D24N]	0.385
GEDLSYGDVPP [IRS1_Y151]	0.995
VLRRVYVDFEG [KMT2B_Y1707]	0.774
MFRAGYDTKQE [F10_Y407_C404R]	0.589
DSSIRYLQEIY [FGG_Y135]	0.733
PLDGEYFTLRI [TP53_Y327_Q331R]	2.88
HRGCLYLAIEF [TEK_Y899_Y897C_YF]	1.33
LESILYESSVV [TRPV4_Y91_T89I]	1.23
IGVGSYSVCKR [RPS6KA3_Y433]	0.618
LPKVSYMKAID [GLRA1_Y307_V308M]	0.707
PPPELYFVKVD [TERT_Y707]	2.84

Sequence	phosphorylation enrichment
YYSSEYHCVGG [CTSC_Y345_Y347C]	3.05
DKMEAYNINET [TEKT4_Y210_D213N]	1.13
NRLTDYFEPLL [BBS10_Y536_YF]	0.959
KENITYMKSEQ [L1TD1_Y24_R27S]	0.585
QLLIEYPPEEV [ZZZ3_Y670_K669E]	1.27
MRAIIYNSSTA [PLEKHA7_Y243_L241I]	0.765
LQRVQCDLQKA [DSP_Y1512_Y1512C]	1.43
RLLVVYPWNQR [HBB_Y36_T39N]	1.04
CLRIDYERVSQ [DSP_Y1542_R1537C]	1.38
SSSGGYGGGFG [KRT19_Y61_A60G_YF]	0.499
LVMFFYAIFGM [SCN1A_Y1684_I1683F]	1.06
KELAPYDENWF [RPS19_Y48]	1.06
ESPGLCGFLNV [BCR_Y910_Y910C]	0.979
CSRRFYQLTKL [AR_Y858]	0.698
QRRNVYFFSFL [PTEN_Y176_Y174N_YF]	1.13
LGKLIYPVGFW [NTHL1_Y177]	1.67

system: AncSZ; assay: as above

Sequence	phosphorylation enrichment
IRKVLYANNVM [ACTA1_Y296_D294V]	0.569
LERFIYNRQEF [HLA-DPB1_Y59_E62Q_YF]	0.766
ATDLAYFLVRK [ASL_Y375_YF]	1.73
QRRLIYRCQVG [NR2E3_Y81_R76Q]	0.968
ARRMEYLASQK [FGFR2_Y616_G613R]	0.461
SDYYAYSPVRE [H6PD_Y449]	6.22
SHMVNYQPYRK [TEX37_Y25_D24N]	0.528
GEDLSYGDVPP [IRS1_Y151]	1.22
VLRRVYVDFEG [KMT2B_Y1707]	0.842
MFRAGYDTKQE [F10_Y407_C404R]	0.671
DSSIRYLQEIY [FGG_Y135]	0.893
PLDGEYFTLRI [TP53_Y327_Q331R]	2.77
HRGCLYLAIEF [TEK_Y899_Y897C_YF]	1.29
LESILYESSVV [TRPV4_Y91_T89I]	1.65
IGVGSYSVCKR [RPS6KA3_Y433]	0.716
LPKVSYMKAID [GLRA1_Y307_V308M]	0.941
PPPELYFVKVD [TERT_Y707]	1.76

Sequence	phosphorylation enrichment
YYSSEYHCVGG [CTSC_Y345_Y347C]	3.84
DKMEAYNINET [TEKT4_Y210_D213N]	1.09
NRLTDYFEPLL [BBS10_Y536_YF]	1.71
KENITYMKSEQ [L1TD1_Y24_R27S]	0.806
QLLIEYPPEEV [ZZZ3_Y670_K669E]	1.36
MRAIIYNSSTA [PLEKHA7_Y243_L241I]	0.812
LQRVQCDLQKA [DSP_Y1512_Y1512C]	1.14
RLLVVYPWNQR [HBB_Y36_T39N]	1.1
CLRIDYERVSQ [DSP_Y1542_R1537C]	1.23
SSSGGYGGGFG [KRT19_Y61_A60G_YF]	0.48
LVMFFYAIFGM [SCN1A_Y1684_I1683F]	1.35
KELAPYDENWF [RPS19_Y48]	1.2
ESPGLCGFLNV [BCR_Y910_Y910C]	1.01
CSRRFYQLTKL [AR_Y858]	0.79
QRRNVYFFSFL [PTEN_Y176_Y174N_YF]	1.11
LGKLIYPVGFW [NTHL1_Y177]	1.6

molecular target: MERTK (UniProt Q12866); assay: as above
Sequence (Q12866 whole entry, looked up): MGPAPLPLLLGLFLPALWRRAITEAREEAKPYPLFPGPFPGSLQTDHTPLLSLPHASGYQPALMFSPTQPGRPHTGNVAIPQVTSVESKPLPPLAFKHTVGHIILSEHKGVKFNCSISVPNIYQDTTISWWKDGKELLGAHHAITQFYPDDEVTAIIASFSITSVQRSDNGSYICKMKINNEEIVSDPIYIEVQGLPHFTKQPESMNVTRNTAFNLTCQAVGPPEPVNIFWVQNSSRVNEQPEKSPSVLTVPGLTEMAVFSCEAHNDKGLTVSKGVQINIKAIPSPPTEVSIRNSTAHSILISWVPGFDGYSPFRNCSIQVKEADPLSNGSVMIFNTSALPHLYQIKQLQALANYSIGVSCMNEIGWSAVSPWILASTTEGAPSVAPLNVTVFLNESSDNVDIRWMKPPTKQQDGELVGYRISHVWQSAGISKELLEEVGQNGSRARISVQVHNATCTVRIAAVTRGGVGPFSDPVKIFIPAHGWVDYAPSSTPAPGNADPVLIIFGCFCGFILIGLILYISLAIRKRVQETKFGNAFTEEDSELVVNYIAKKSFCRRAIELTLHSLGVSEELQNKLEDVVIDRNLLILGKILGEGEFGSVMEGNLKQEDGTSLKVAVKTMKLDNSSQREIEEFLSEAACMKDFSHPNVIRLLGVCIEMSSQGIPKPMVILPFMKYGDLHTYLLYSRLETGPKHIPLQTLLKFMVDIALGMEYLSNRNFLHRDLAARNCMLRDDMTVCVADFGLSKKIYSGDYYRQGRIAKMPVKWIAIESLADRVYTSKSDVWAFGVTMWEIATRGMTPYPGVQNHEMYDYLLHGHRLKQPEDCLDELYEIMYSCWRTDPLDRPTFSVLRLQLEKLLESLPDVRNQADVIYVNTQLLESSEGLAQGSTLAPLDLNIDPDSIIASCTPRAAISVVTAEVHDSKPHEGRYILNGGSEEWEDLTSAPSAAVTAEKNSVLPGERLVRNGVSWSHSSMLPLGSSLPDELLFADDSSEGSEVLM

Sequence	phosphorylation enrichment
IRKVLYANNVM [ACTA1_Y296_D294V]	0.328
LERFIYNRQEF [HLA-DPB1_Y59_E62Q_YF]	0.357
ATDLAYFLVRK [ASL_Y375_YF]	0.642
QRRLIYRCQVG [NR2E3_Y81_R76Q]	0.652
ARRMEYLASQK [FGFR2_Y616_G613R]	0.402
SDYYAYSPVRE [H6PD_Y449]	10.7
SHMVNYQPYRK [TEX37_Y25_D24N]	0.351
GEDLSYGDVPP [IRS1_Y151]	0.463
VLRRVYVDFEG [KMT2B_Y1707]	0.435
MFRAGYDTKQE [F10_Y407_C404R]	0.335
DSSIRYLQEIY [FGG_Y135]	0.438
PLDGEYFTLRI [TP53_Y327_Q331R]	0.45
HRGCLYLAIEF [TEK_Y899_Y897C_YF]	0.467
LESILYESSVV [TRPV4_Y91_T89I]	0.678
IGVGSYSVCKR [RPS6KA3_Y433]	0.445
LPKVSYMKAID [GLRA1_Y307_V308M]	0.484
PPPELYFVKVD [TERT_Y707]	2.69

Sequence	phosphorylation enrichment
YYSSEYHCVGG [CTSC_Y345_Y347C]	8.36
DKMEAYNINET [TEKT4_Y210_D213N]	0.492
NRLTDYFEPLL [BBS10_Y536_YF]	0.381
KENITYMKSEQ [L1TD1_Y24_R27S]	0.39
QLLIEYPPEEV [ZZZ3_Y670_K669E]	0.622
MRAIIYNSSTA [PLEKHA7_Y243_L241I]	0.47
LQRVQCDLQKA [DSP_Y1512_Y1512C]	0.762
RLLVVYPWNQR [HBB_Y36_T39N]	0.636
CLRIDYERVSQ [DSP_Y1542_R1537C]	0.475
SSSGGYGGGFG [KRT19_Y61_A60G_YF]	0.398
LVMFFYAIFGM [SCN1A_Y1684_I1683F]	0.84
KELAPYDENWF [RPS19_Y48]	0.421
ESPGLCGFLNV [BCR_Y910_Y910C]	0.519
CSRRFYQLTKL [AR_Y858]	0.448
QRRNVYFFSFL [PTEN_Y176_Y174N_YF]	0.5
LGKLIYPVGFW [NTHL1_Y177]	0.634

system: c-Abl (mouse); assay: as above

Sequence	phosphorylation enrichment
IRKVLYANNVM [ACTA1_Y296_D294V]	0.529
LERFIYNRQEF [HLA-DPB1_Y59_E62Q_YF]	0.464
ATDLAYFLVRK [ASL_Y375_YF]	1.2
QRRLIYRCQVG [NR2E3_Y81_R76Q]	0.595
ARRMEYLASQK [FGFR2_Y616_G613R]	0.286
SDYYAYSPVRE [H6PD_Y449]	12.9
SHMVNYQPYRK [TEX37_Y25_D24N]	0.368
GEDLSYGDVPP [IRS1_Y151]	0.765
VLRRVYVDFEG [KMT2B_Y1707]	0.629
MFRAGYDTKQE [F10_Y407_C404R]	0.497
DSSIRYLQEIY [FGG_Y135]	0.567
PLDGEYFTLRI [TP53_Y327_Q331R]	1.93
HRGCLYLAIEF [TEK_Y899_Y897C_YF]	1.31
LESILYESSVV [TRPV4_Y91_T89I]	1.01
IGVGSYSVCKR [RPS6KA3_Y433]	0.53
LPKVSYMKAID [GLRA1_Y307_V308M]	0.967
PPPELYFVKVD [TERT_Y707]	1.19

Sequence	phosphorylation enrichment
YYSSEYHCVGG [CTSC_Y345_Y347C]	6.69
DKMEAYNINET [TEKT4_Y210_D213N]	0.808
NRLTDYFEPLL [BBS10_Y536_YF]	0.675
KENITYMKSEQ [L1TD1_Y24_R27S]	0.503
QLLIEYPPEEV [ZZZ3_Y670_K669E]	1.03
MRAIIYNSSTA [PLEKHA7_Y243_L241I]	1.04
LQRVQCDLQKA [DSP_Y1512_Y1512C]	0.987
RLLVVYPWNQR [HBB_Y36_T39N]	0.735
CLRIDYERVSQ [DSP_Y1542_R1537C]	0.96
SSSGGYGGGFG [KRT19_Y61_A60G_YF]	0.512
LVMFFYAIFGM [SCN1A_Y1684_I1683F]	0.937
KELAPYDENWF [RPS19_Y48]	0.597
ESPGLCGFLNV [BCR_Y910_Y910C]	0.844
CSRRFYQLTKL [AR_Y858]	0.508
QRRNVYFFSFL [PTEN_Y176_Y174N_YF]	0.509
LGKLIYPVGFW [NTHL1_Y177]	1.27
